These results are taken from the supplement of paper PMC10724198.

± gives the standard deviation of the averaged measurements.
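Note: PSI is a weighted mean of sequencing reads over stability bins, variants kept only with over 10 reads, mCherry proximal and sfGFP distal, peptide attached via GGGS linker.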

In this data set the test system is Saccharomyces cerevisiae. Kind of data set: protein stability index of tFT-peptide fusion (C-terminal peptide) (PSI (0-1 scale)); higher = more stable (slower turnover). To be noted: genetic background: wild type; temperature: 30 C. As to the method:
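Multiplexed protein stability (MPS) profiling in S. cerevisiae. Random 12-aa peptides (tFT-X12 library) are fused to the C-terminus of a sfGFP-mCherry tandem fluorescent timer, after mCherry and a GGGS linker. Cells are FACS-sorted into 8 mCherry/sfGFP bins and deep-sequenced. The protein stability index (PSI) is the read-weighted bin average, scaled from 0 (unstable) to 1 (stable). Only peptides with >10 reads are reported; cells were grown at 30 °C in SC-His with glucose.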
In turn, EHKRQRPVTRLP yielded a protein stability index of 0.672 ± 0.016.

Take EIGSWKTISILV: the protein stability index was found to be 0.487 ± 0.024.

Sequence EIKEEKEHRNQE yielded a protein stability index of 0.696 ± 0.052.

As to EINSIEQESGTT, the protein stability index was 0.677 ± 0.019.

In the case of EIRGGDMGEWRE, the protein stability index was found to be 0.715 ± 0.027.

EISPQGAKWQEG displayed a protein stability index of 0.655 ± 0.048.

EKCDYVIPVGLL: the protein stability index worked out at 0.702 ± 0.035.

EKCHVTVVNEMR showed a protein stability index of 0.643 ± 0.074.

Sequence EKEWKRGTRKLD registered a protein stability index of 0.702 ± 0.085.

EKIRSNIIKLEE displayed a protein stability index of 0.64 ± 0.097.

EKKEINKIKNQN had a protein stability index of 0.662 ± 0.028.

Take EKKEVSLVKKGR: the protein stability index came to 0.695 ± 0.039.

Consider EKKHNKKEVIKK, for which the protein stability index is 0.699 ± 0.009.

On to EKKKKTIRKRMT, for which the protein stability index is 0.6691 ± 0.0018.

EKKKQKDKKKKN showed a protein stability index of 0.705 ± 0.0078.

EKKRRKKGEKRR yielded a protein stability index of 0.712 ± 0.17.

EKLEGRKIIKKK: the protein stability index is 0.6927 ± 0.006.

Regarding EKNEREEAESGG, the protein stability index worked out at 0.714 ± 0.038.

EKNKKDKNIIIG: the protein stability index was found to be 0.681 ± 0.04.

EKNKKKIERSTM came in with a protein stability index of 0.684 ± 0.012.

In turn, EKRRRRRQEAER gave a protein stability index of 0.608 ± 0.03.

Turning to EKSPDYVFRWFR, the protein stability index is 0.745 ± 0.044.

In turn, EKTNQPFHTLHA returned a protein stability index of 0.673 ± 0.011.

The sequence EKVGAGVRLAWN gave a protein stability index of 0.695 ± 0.003.

Turning to ELCPFLPLFLTY, the protein stability index came to 0.551 ± 0.03.

As for ELEIRSLCPDVV, the protein stability index came out at 0.694 ± 0.024.

As to ELVYVFLGNLPP, the protein stability index was found to be 0.632 ± 0.034.

In the case of ELWRAGEVRGGK, the protein stability index was 0.713 ± 0.035.

Take EMGGLKACRGVG: the protein stability index came out at 0.56565 ± 0.00029.

The sequence EMNKGKREKKGE gave a protein stability index of 0.684 ± 0.084.

EMYEKLKSYIVK showed a protein stability index of 0.685 ± 0.013.

Regarding ENDKPITRKETQ, the protein stability index came to 0.605 ± 0.07.

With ENPVVRSGAVGS, the protein stability index turned out to be 0.698 ± 0.031.

In turn, EPAWVNDQKERS returned a protein stability index of 0.832 ± 0.029.

In turn, EPGFWGGRGGRA gave a protein stability index of 0.661 ± 0.01.

In turn, EPLGSGLQCTAG yielded a protein stability index of 0.731 ± 0.005.

For EPRPTPLSTPRH, the protein stability index is 0.671 ± 0.094.

EQRLQRATELGR came in with a protein stability index of 0.52028 ± 0.00016.

Regarding EQRQVQVTWRQD, the protein stability index was determined as 0.66 ± 0.055.

EQTIGDRVPGKG gave a protein stability index of 0.658 ± 0.051.

EQVRVDETTGRR came in with a protein stability index of 0.722 ± 0.025.

The sequence ERARSRGGGGCV came in with a protein stability index of 0.632 ± 0.046.

Sequence ERCQGGSGVLIR showed a protein stability index of 0.638 ± 0.1.

ERDDRSFEWPRQ displayed a protein stability index of 0.69 ± 0.025.

ERGKGSRVGGST returned a protein stability index of 0.643 ± 0.1.

The sequence ERGREVVSRGVQ had a protein stability index of 0.724 ± 0.014.

For ERKESKSRKVER, the protein stability index stood at 0.726 ± 0.081.

The sequence ERKKIKDKIKKN registered a protein stability index of 0.702 ± 0.051.

With ERKQKKKTKEKY, the protein stability index was 0.682 ± 0.026.

Sequence ERKQRKREQRDR yielded a protein stability index of 0.6609 ± 0.0038.

Take ERLACRFRTVVM: the protein stability index is 0.595 ± 0.053.

For ERNDLGNRLSMD, the protein stability index was 0.654 ± 0.02.

As for ERRGAAGAGSTR, the protein stability index was found to be 0.744 ± 0.045.

With ERSRRVSNIMVL, the protein stability index was determined as 0.48 ± 0.095.

Sequence ERSVTVKIRDLL came in with a protein stability index of 0.6767 ± 0.0036.

ERTSSSWPPPAV: the protein stability index was 0.72 ± 0.09.

For the sequence ERVEETGREQPT, the protein stability index was 0.754 ± 0.037.

Take ESPTWVVLEGLG: the protein stability index is 0.6996 ± 0.0014.

In turn, ESRGLVRRLGTG came in with a protein stability index of 0.693 ± 0.058.

The sequence ESRGVRAGTWQG had a protein stability index of 0.694 ± 0.05.

For ESSTGYSPPLPV, the protein stability index amounted to 0.666 ± 0.047.

With ETNKEDKGKKSI, the protein stability index amounted to 0.6577 ± 0.0051.

Consider EVCAGNFVCSLG, for which the protein stability index was found to be 0.708 ± 0.015.

Sequence EVDRGSNWEGRL yielded a protein stability index of 0.66 ± 0.011.
